Measurements reported in patent publication US12655409B2, “Recombinant lysin and its use in the treatment of Gram-negative bacterial infections” (TELUM THERAPEUTICS S.L., priority 2020, dated 2026).

Tests used:
E. coli ATCC 25922 = assay: MIC by microdilution in TP-Na 10 mM pH 6.15; format: cell-based, Escherichia coli
Experimental: The IKB206tags endolysin was purified from the Escherichia coli BL21 (DE3) strain, as previously described.
Checkerboard tests were assessed by the microdilution method, as previously described (Moody JA 1992, Moellering E G., Jr.1996). […] Each microtiter well contained 100 μl of a E. coli inoculum of 1×10^5 CFUs mL^−1, with or without the corresponding compounds, in a final volume of 200 μl of Sodium phosphate (TP-Na) buffer 10 mM pH 6.15 per well and the plates were incubated at 37° C. for 17 h.

[1] = tested on: M. lysodeikticus lyophilized cells; assay: Enzyme specific activity assay (turbidometric, A450 decrease); format: biochemical, Micrococcus lysodeikticus; conditions: 37° C., 10 mM Na2HPO4/NaH2PO4 pH 6
Experimental: The specific activity (U mG-1) was determined using a suspension of 0.6 mg mL^−1 of M. lysodeikticus lyophilized cells as substrate resuspended in cold buffer of the enzyme (10 mM Na2HPO4/NaH2PO4, PH 6 for IKB206tags and 50 mM K2HPO4/KH2PO4, pH 6.2 for egg white lysozyme) and incubating this suspension at different concentrations of the enzyme. Egg white lysozyme (Fisher BioReagents™ Lysozyme) was used as a control. Specifically, 100 μL of the M. lysodeikticus suspension were plated, in triplicate, into a multi-well plate and 100 μL of the different enzyme concentrations were added to the corresponding well. The plate was incubated at the appropriate temperature into a thermostated spectrophotometer (37° C. for IKB206tags and 25° C. for egg white lysozyme) and the A450 decrease was monitored over 10 min.
Unit definition: 1 unit is that amount of enzyme needed to catalyze a decrease in absorbance at 450 nm of 0.001/min at the appropriate temperature and pH of each lysozyme in a 1 cm cuvette due to lysis using a ˜0.4-0.6 mg/mL suspension of M. lysodeikticus.

[2] = tested on: E. coli strain ATCC 25922; assay: Enzyme bactericidal activity assay on E. coli ATCC 25922; format: cell-based, Escherichia coli
Experimental: (§1) Briefly, the different bacterial cultures were incubated in the specific media (Table 1) at 37° C. or 30° C., according to the strain, until reaching an A600 of 0.3. The cells were then deposited by centrifugation (4500×g, 10 min) and washed twice with the corresponding buffer, with the A600 being adjusted to ≈0.3. A volume of 160 μl of the bacterial suspension was transferred to sterile 96-well plates to which there were added 40 μl of the enzyme under study in a range of doses comprised between 1 and 60 μg mL^−1. The control wells were treated with the same volume of buffer […]. The plates were incubated at 37° C. Samples were taken at different times, serial dilutions performed, and they were seeded in plates containing the specific medium to determine viable bacteria. The experiments were repeated at least 3 times. The bactericidal effect of IKB206 (and its variants) was quantified as the number of logs reduced in the presence of treatment, after a given incubation time (log10 (N0/Ni), where N0=number of CFU mL^−1 before treatment, and Ni=number of CFU mL^−1 after the corresponding incubation time in the presence of each treatment).

[3] = tested on: E. coli strain DSM 17076 with serotype O157: H7; assay: Enzyme bactericidal activity assay on E. coli serotype O157:H7; format: cell-based, Escherichia coli; conditions: 15 μg mL^−1
Experimental: as §1

## C[C@@H](O)[C@H]1C(=O)N2C(C(=O)O)=C(SCCN=CN)C[C@H]12 [Imepenem]
E. coli ATCC 25922
  MIC: 2.34 µg/mL

## C[C@@H](O)[C@H]1C(=O)N2C(C(=O)O)=C(S[C@@H]3CN[C@H](C(=O)N(C)C)C3)[C@H](C)[C@H]12 [Meropenem]
E. coli ATCC 25922
  MIC: 0.59 µg/mL

B1: IKB206tags: IKB206 with S-tag at the N-terminal end, 6-His tag at the C-terminal end and thrombin cleavage sites; 329 amino acids (protein)
chain: MKETAAAKFERQHMDSPDLGTLVPRGSMAISDPMKTSPNGIAVTKYFESFEARAYPDPATGGKPYTIGFGTTVYPSGAPVRLGDVCTKEQAEKYLQNDLAKFEKIVSDAVRVPLNQGQFDALVSFTYNLGPANLRSSTLLKKLNAGDYAGAAKEFPRWNRANGKVMKGLTRRRAAEQCLFEGMGGASAIERGVAAANSGTPKNVSRGTSSTKTTPKYKVKNGDNLTKIAKKHNTTVATLLKLNPGIKDPNMIRVGQTLNVTGSGGKTHKVKSGDTLSKIAVDNKTTVSKLMNLNPEITNPNHIKVGQTIRLSLGTLVPRGSLEHHHHHH
modifications: S-tag, 6-His tag, thrombin sites; chimeric endolysin (IKB206tags)
notes: IKB206 with S-tag at the N-terminal end, 6-His tag at the C-terminal end and thrombin cleavage sites; 329 amino acids
[1]
  specific activity: around 8100 U mg^−1
[2]; 5 μg mL^−1, 15 min of incubation
  reduction in CFU mL^−1: significant
[2]; 15 μg mL^−1
  incubation time for killing the entire culture: 30 min
[2]; 15 μg mL^−1, 5 minutes of incubation
  reduction of the number of CFU mL^−1: more than 2 logs
[2]; 60 μg mL^−1
  incubation time for killing the entire culture: 15 min
[3]
  bactericidal activity on serotype O157:H7: significantly reduced the number of E. coli strain DSM 17076 cells, although it was not capable of killing the entire culture

B2: IKB206AD8: putative endolysin from phage Arya alone, catalytic domain of IKB206 without the D8 domain (protein)
chain: MKTSPNGIAVTKYFESFEARAYPDPATGGKPYTIGFGTTVYPSGAPVRLGDVCTKEQAEKYLQNDLAKFEKIVSDAVRVPLNQGQFDALVSFTYNLGPANLRSSTLLKKLNAGDYAGAAKEFPRWNRANGKVMKGLTRRRAAEQCLFEGMGGASAIERGVAAA
modifications: Enterobacter phage Arya; (1)..(163) Endolysin
[2]
  bactericidal activity in the absence of the D8 domain: presented bactericidal activity
  incubation times to obtain the same levels of bactericidal activity as IKB206: longer incubation times were needed
[2]; 15 μg mL^−1, 60 minutes
  reduction in CFU/mL: about 3 log
[2]; 15 μg mL^−1, 180 minutes
  reduction in CFU/mL: about 5 log
